Test results reported in patent publication US20240317857A1 (AMPSOURCE BIOPHARMA SHANGHAI, published 2024).
Positions count from the first letter of the chain named.

T1: His-labeled cynomolgus monkey CD3E (purchased from Acro Biosystems) (cynomolgus monkey, UniProt Q95LI5 22-117)
T1 construct: also called Cynomolgus monkey CD3E antigen; not shown: His label
T1 sequence (looked up): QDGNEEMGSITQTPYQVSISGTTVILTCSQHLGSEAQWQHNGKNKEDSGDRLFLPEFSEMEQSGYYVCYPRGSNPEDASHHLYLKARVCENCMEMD

B1: humanized antibody AB614 (antibody, human IgG4 S228P, kappa, V domains shown)
VH: EVQLLESGGGLVQPGGSLKLSCAASGFTFNTYAMNWVRQAPGKGLEWVGRIRSKINNYATYYADSVKDRFTISRDDSKNTAYLQMNNLKTEDTAMYYCVRHDNFYGSTYSWFADWGQGTLVTVSS
VL: ELVVTQEPSLTVSPGGTVTLTCRSSTGVVTTSNYANWVQEKPDHLFTGLIGATNYRAPGTPARFSGSLLGGKAALTLSGVQPEDEAIYFCVLWYSNHWVFGGGTKLTVLR
notes: Humanized from AP591 CDRs
B2: murine monoclonal antibody AP591 (antibody, mouse IgG1, V domains shown)
VH: B1 VH with L5V, G15K, K67R, K78Q, N79S, T80M, A81L, N86S, S125A
VL: AVVTQESALTTSPGETVTLTCRSSTGVVTTSNYANWVQEKPDHLFTGLIGATNYRVPGVPARFSGSLIGDKAALTITGAQTEDEAIYFCVLWYSNHWVFGGGTKLTVL
B3: murine monoclonal antibody AP191 (antibody, mouse IgG1, V domains shown)
VH: QVQLQQSGPELVKPGASMKMSCKASGYTFTSYYIHWVKQRPGQGLEWIGWIYPGDGSTKFNEKFRGKTSLTADKSSNTAYMFLSSLTSEDSAIYFCARDGYSLYYFEFWGHGTTLTVSS
VL: DIVMSQSPSSLAVSAGETVTMSCKSSQSLLNSRTRKTYLAWYQQKPGQSPKLLIYWASTRDSGVPDRFTGSGSGTDFTLTISSVQAEDLAVYYCVQSYTLRTFGGGTKLEIK
B4: murine monoclonal antibody AP831 (antibody, mouse IgG1, V domains shown)
VH: QVQLQQSGPELVKPGTSVKMSCKASGYTFTNNYIHWVKEKPGEGLEWIGWIYPGDGTTKYNEKFKGKTTLASDKSSNTVYMFLSSLTSEDSAIYFCTRNNNYYFDYWGQGTTLTVSS
VL: B3 VL with T18K, S22N, L30F, T37N, D61E, V91L, V95K, Y98F, T99I
B5: humanized antibody AB611 (antibody, human IgG4 S228P, kappa, V domains shown)
VH: EVQLVQSGAEVKKPGSSVKVSCKASGYTFTNNYIHWVKEKPGQGLEWIGWIYPGDGTTKYNEKFKGKTTLASDKSTNTAYMELSSLRSEDTAIYFCTRNNNYYFDYWGQGTTVTVSS
VL: DIVMTQSPDSLAVSLGERATMNCKSSQSLFNSRTRKNYLAWYQQKPGESPKLLIYWASTRESGVPDRFSGSGSGTDFTLTISSLQAEDVAVYYCKQSFILRTFGGGTKVEIKR
notes: Humanized from AP831 CDRs
B6: humanized antibody AB616 (antibody, V domains shown)
VH: B1 VH with N30D
VL: ELVVTQEPSLTVSPGGTVTLTCRSSTGVVTTSNYANWVQEKPDHLFTGLIGATNYRAPGTPARFSGSLLGGKAALTLSGVQPEDEAIYFCVLWYSNHWVFGGGTKLTVL
B7: humanized antibody AB618 (antibody, V domains shown)
VH: B1 VH
VL: B6 VL with A52D
B8: humanized antibody AB627 (antibody, V domains shown)
VH: B1 VH with F112H
VL: B6 VL
B9: humanized antibody AB625 (antibody, V domains shown)
VH: B1 VH with Y109H
VL: B6 VL
B10: humanized antibody AB624 (antibody, V domains shown)
VH: B1 VH with Y105H
VL: B6 VL
B11: humanized antibody AB621 (antibody, V domains shown)
VH: B1 VH
VL: B6 VL with Y34H
B12: humanized antibody AB626 (antibody, V domains shown)
VH: B1 VH with W111H
VL: B6 VL
B13: humanized antibody AB622 (antibody, V domains shown)
VH: B1 VH
VL: B6 VL with Y55H
B14: humanized antibody AB615 (antibody, V domains shown)
VH: B1 VH with T28D
VL: B6 VL
B15: humanized antibody AB619 (antibody, V domains shown)
VH: B1 VH
VL: B6 VL with N54D
B16: humanized antibody AB617 (antibody, V domains shown)
VH: B1 VH with T31D
VL: B6 VL
B17: humanized antibody AB620 (antibody, V domains shown)
VH: B1 VH with N30D
VL: B6 VL with N54D
B18: humanized antibody AB623 (antibody, V domains shown)
VH: B1 VH with F104H
VL: B6 VL

Molecular target: T2, human CD3 on human T cells (human, UniProt P07766 23-207)
T2 sequence (P07766 23-207): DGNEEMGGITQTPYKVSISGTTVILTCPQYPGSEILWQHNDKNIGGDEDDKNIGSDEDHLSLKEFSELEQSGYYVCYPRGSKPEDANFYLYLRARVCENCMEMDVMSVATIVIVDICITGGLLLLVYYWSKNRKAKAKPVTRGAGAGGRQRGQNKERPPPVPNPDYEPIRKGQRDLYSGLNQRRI
Assay: cell-based or functional assay

Q: For B1, which “EC50 of activating T cells (luciferase of NFAT RE reporter Jurkat T cells)” value is on record?
A: 142 pM

Molecular target: T3, human CD3E (purchased from Acro Biosystems) (human, UniProt P07766 23-126)
T3 construct: also called human CD3 antigen; human CD3E molecules
T3 sequence (P07766 23-126 limits assumed): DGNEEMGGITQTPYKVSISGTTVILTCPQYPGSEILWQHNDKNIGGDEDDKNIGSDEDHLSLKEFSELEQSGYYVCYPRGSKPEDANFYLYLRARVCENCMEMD
Assay: ELISA, plate coated with human CD3E
Procedure: A microtiter plate was coated with 100 μL of 0.1 μg/mL human CD3E (purchased from Acro Biosystems) overnight at room temperature. The coating solution was discarded, and the wells were blocked with skimmed milk dissolved in phosphate buffered saline (PBS) for 0.5 hours and washed with PBS containing 0.05% Tween-20 (PBST). Then the purified murine antibodies AP191, AP591 and AP831 against human CD3 were added with 50 μL per well and incubated for 1 h at room temperature. The wells were washed with 0.05% PBST. Then 50 μL of HRP-labeled goat anti-mouse IgG polyclonal antibody (purchased from Jackson Laboratory) was added per well as the detected antibody and incubated for 1 h at 37° C. The wells were washed three times with 0.05% PBST, added with TMB (100 μL/well) and developed at room temperature for 5 min. 0.2 M H₂SO₄ was added to terminate the reaction, 50 μL/well. Absorption values were read by a microplate reader at double wavelengths 450 nm/620 nm. Plotting was performed by software GraphPad Prism 6 with OD 450 nm/620 nm as the Y-axis and an antibody concentration as the X-axis.

Q: Which EC50 does the source give for B2 here?
A: 28.3 pM

Q: How did the EC50 turn out when B3 was run?
A: 14.9 pM

Q: B4 was tested. Which EC50 did it give?
A: 40.4 pM

Molecular target: T2, human CD3 on human T cells
Assay: flow cytometry on human primary T cells

Q: With B1 as the binder, how does the EC50 read?
A: 1180 pM

Q: B2 was tested. Which EC50 did it give?
A: 8910 pM

Q: How did the EC50 turn out when B3 was run?
A: 2740 pM

Q: B4 was tested. Which EC50 did it give?
A: 825 pM

Q: For B5, which EC50 is on record?
A: 174 pM

Molecular target: T4, His-labeled human CD3E (human, UniProt P07766 23-126)
T4 construct: also called human CD3E antigen; antigen CD3E; not shown: His label
T4 sequence (P07766 23-126): as the sequence (P07766 23-126 limits assumed) above
Assay: ELISA, plate coated with His-labeled human CD3E
Procedure: (§1) A microtiter plate was coated with 0.1 μg/mL His-labeled human or cynomolgus monkey CD3E (purchased from Acro Biosystems) (100 μL/well) overnight at 4° C. The coating solution was discarded, and the microtiter plate was blocked with 1% PBSB (200 μL/well), incubated for 1 h at 37° C. and washed with PBS containing 0.05% Tween-20. The diluted CD3 humanized antibodies AB611 and AB614 with a series of concentrations were added (100 μL/well), incubated for 1 h at 37° C. and washed with 0.05% PBST, and HRP-labeled goat anti-human IgG (H+L) (Jackson Laboratory) was added as the detection antibody and incubated for 1 h at 37° C. The wells were washed three times with 0.05% PBST, added with TMB (100 μL/well) and developed at room temperature for 5 min. 0.2 M H₂SO₄ was added to terminate the reaction, 50 μL/well. Absorption values were read by a microplate reader at double wavelengths 450 nm/620 nm. Plotting was performed by software GraphPad Prism 6 with OD 450 nm/620 nm as the Y-axis and an antibody concentration as the X-axis.

Q: How did the EC50 turn out when B1 was run?
A: 9.13 pM

Q: Which EC50 does the source give for B5 here?
A: 8.33 pM

Molecular target: T1, His-labeled cynomolgus monkey CD3E …
Assay: ELISA, plate coated with His-labeled cynomolgus monkey CD3E
Procedure: as §1

Q: For B1, which EC50 is on record?
A: 7.55 pM

Q: How did the EC50 turn out when B5 was run?
A: 4.83 pM

Molecular target: T4, His-labeled human CD3E
Assay: BLI (Octet), method of Example 3: His-labeled human CD3E on Ni-NTA sensors
Procedure: (§2) The binding affinity constants of the purified murine monoclonal antibodies to antigen CD3E were determined by […] (BLI) with the ForteBio Octet RED&QK system from PALL Corporation. Concentration gradients of a multichannel parallel quantitative analysis were set to 3.125, 6.25, 12.5, 25, 50 and 100 nM, and His-labeled human CD3E (10 μg/mL) was coupled to Ni-NTA sensors.
For example, the experimental method for determining the kinetic constants and affinity equilibrium dissociation constants of the humanized antibodies was as described in Example 3.

Q: Which Kd does the source give for B1 here?
A: 19.6 pM

Q: What about the koff of the same binder?
A: 1.45e-05 s⁻¹

Q: What about the kon of the same binder?
A: 741000 M⁻¹ s⁻¹

Q: B6 was tested. Which Kd did it give?
A: 116 pM

Q: And the koff?
A: 2.97e-05 s⁻¹

Q: What about the kon of the same binder?
A: 256000 M⁻¹ s⁻¹

Q: What does the source list for B7?
A: Kd: < 1 pM; koff: < 1e-07 s⁻¹; kon: 51200 M⁻¹ s⁻¹

Q: For B8, which Kd is on record?
A: ≤ 2.64 pM

Q: What about the koff of the same binder?
A: < 1e-07 s⁻¹

Q: What about the kon of the same binder?
A: 7300 M⁻¹ s⁻¹

Q: What does the source list for B9?
A: Kd: 1800 pM; koff: 0.000318 s⁻¹; kon: 177000 M⁻¹ s⁻¹

Q: For B10, which Kd is on record?
A: 677 pM

Q: What about the koff of the same binder?
A: 0.000201 s⁻¹

Q: What about the kon of the same binder?
A: 296000 M⁻¹ s⁻¹

Q: How did the Kd turn out when B11 was run?
A: 2120 pM

Q: And the koff?
A: 0.000369 s⁻¹

Q: And the kon?
A: 174000 M⁻¹ s⁻¹

Q: For B12, which Kd is on record?
A: 182000 pM

Q: What about the koff of the same binder?
A: 0.00169 s⁻¹

Q: And the kon?
A: 9300 M⁻¹ s⁻¹

Q: For B13, which Kd is on record?
A: 1450 pM

Q: And the koff?
A: 0.000391 s⁻¹

Q: And the kon?
A: 270000 M⁻¹ s⁻¹

Q: For B14, which Kd is on record?
A: 668 pM

Q: What about the koff of the same binder?
A: 0.00017 s⁻¹

Q: What about the kon of the same binder?
A: 254000 M⁻¹ s⁻¹

Q: What does the source list for B15?
A: Kd: 123 pM; koff: 3.41e-05 s⁻¹; kon: 276000 M⁻¹ s⁻¹

Q: Which Kd does the source give for B16 here?
A: 2760 pM

Q: What about the koff of the same binder?
A: 0.000698 s⁻¹

Q: What about the kon of the same binder?
A: 252000 M⁻¹ s⁻¹

Q: B17 was tested. Which Kd did it give?
A: 169 pM

Q: What about the koff of the same binder?
A: 4.26e-05 s⁻¹

Q: And the kon?
A: 253000 M⁻¹ s⁻¹

Q: B18 was tested. Which Kd did it give?
A: 23300 pM

Q: What about the koff of the same binder?
A: 0.00119 s⁻¹

Q: What about the kon of the same binder?
A: 51200 M⁻¹ s⁻¹

Molecular target: T4, His-labeled human CD3E
Assay: BLI (Octet), His-labeled human CD3E on Ni-NTA sensors, antibody 3.125-100 nM
Procedure: as §2

Q: With B2 as the binder, how does the Kd read?
A: 19.4 pM

Q: What about the koff of the same binder?
A: 1.04e-05 s⁻¹

Q: And the kon?
A: 539000 M⁻¹ s⁻¹

Q: Which Kd does the source give for B3 here?
A: 121 pM

Q: And the koff?
A: 9.73e-05 s⁻¹

Q: And the kon?
A: 802000 M⁻¹ s⁻¹

Q: How did the kon turn out when B4 was run?
A: 692000 M⁻¹ s⁻¹
